Our source for the binding inhibition rate (%) values is patent WO2023190851A1.

The test concerns the target SARS-CoV-2 Spike RBD, His Tag (B.1.1.529/Omicron) (SARS-CoV-2, Omicron B.1.1.529 (BA.1) lineage) (UniProt P0DTC2).

As to ADG2 (antibody), the binding inhibition rate (%) at 2 μg/ml is less than 30%.

The substance AZD1061 (antibody) gave a binding inhibition rate (%) at 2 μg/ml of less than 30%.

As to AZD8895 (antibody), the binding inhibition rate (%) at 2 μg/ml is less than 30%.

In the case of LY_CoV16 (antibody), the binding inhibition rate (%) at 2 μg/ml was less than 30%.

The substance LY_CoV555 (antibody) returned a binding inhibition rate (%) at 2 μg/ml of less than 30%.

For the substance REGN10933 (antibody), the binding inhibition rate (%) at 2 μg/ml was less than 30%.

REGN10987 (antibody): the binding inhibition rate (%) at 2 μg/ml is less than 30%.

With S309 (antibody), the binding inhibition rate (%) at 2 μg/ml was less than 30%.
